Experimental findings from paper PMC4304843, “Human Mitochondrial Hsp70 (Mortalin): Shedding Light on ATPase Activity, Interaction with Adenosine Nucleotides, Solution Structure and Domain Organization” (PLoS ONE, 2015) are described below.

The target in experiment [1] is Human mitochondrial Hsp70 (mortalin), recombinant (human) (UniProt P38646).
In experiment [2] the target is Human Hsp70-1A, recombinant (human) (UniProt P0DMV8).
Human Hsp70-1A, recombinant (human), sequence (P0DMV8 whole entry): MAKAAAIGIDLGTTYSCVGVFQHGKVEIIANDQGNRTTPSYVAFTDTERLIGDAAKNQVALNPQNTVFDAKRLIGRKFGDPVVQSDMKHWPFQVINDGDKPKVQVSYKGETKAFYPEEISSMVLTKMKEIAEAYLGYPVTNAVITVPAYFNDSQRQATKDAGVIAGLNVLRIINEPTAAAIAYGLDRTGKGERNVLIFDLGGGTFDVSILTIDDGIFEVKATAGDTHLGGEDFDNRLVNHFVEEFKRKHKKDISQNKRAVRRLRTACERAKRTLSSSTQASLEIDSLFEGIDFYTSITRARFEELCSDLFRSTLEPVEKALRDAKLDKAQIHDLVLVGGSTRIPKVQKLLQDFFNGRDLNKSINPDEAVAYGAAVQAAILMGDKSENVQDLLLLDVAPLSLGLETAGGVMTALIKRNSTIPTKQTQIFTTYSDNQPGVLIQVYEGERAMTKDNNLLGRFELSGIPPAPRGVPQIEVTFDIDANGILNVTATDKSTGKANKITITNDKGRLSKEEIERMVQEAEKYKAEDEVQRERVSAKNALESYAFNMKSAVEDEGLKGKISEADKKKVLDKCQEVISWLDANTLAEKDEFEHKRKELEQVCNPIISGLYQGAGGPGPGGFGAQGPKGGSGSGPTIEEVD

Human mitochondrial Hsp70 (mortalin), recombinant (human), sequence (P38646 47-679): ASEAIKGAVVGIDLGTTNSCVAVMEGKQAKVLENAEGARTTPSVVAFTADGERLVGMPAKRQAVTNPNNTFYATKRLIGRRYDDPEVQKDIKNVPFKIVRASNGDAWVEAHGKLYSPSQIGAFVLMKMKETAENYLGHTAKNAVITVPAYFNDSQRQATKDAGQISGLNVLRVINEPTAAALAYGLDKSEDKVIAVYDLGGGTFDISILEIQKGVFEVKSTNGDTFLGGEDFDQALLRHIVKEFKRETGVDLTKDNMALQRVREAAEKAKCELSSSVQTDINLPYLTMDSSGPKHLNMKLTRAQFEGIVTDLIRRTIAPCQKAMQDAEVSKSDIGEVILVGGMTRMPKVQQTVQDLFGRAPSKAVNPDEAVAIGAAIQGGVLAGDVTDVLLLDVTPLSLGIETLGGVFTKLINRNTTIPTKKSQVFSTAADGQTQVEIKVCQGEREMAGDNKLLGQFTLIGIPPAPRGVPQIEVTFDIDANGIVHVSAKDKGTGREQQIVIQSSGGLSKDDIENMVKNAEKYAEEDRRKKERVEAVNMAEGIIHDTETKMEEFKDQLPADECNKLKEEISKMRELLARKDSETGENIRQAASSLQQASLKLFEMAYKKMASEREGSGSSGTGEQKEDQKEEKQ

B1: NR peptide (NRLLLTGY) (peptide)
peptide: NRLLLTGY
On to B1, for which, in experiment [1], the EC50 of the stimulation of the basal ATPase activity of mortalin by NR peptide titration (1 mmol/L ATP, 37°C) was found to be 7 µM and the relative stimulation of the basal ATPase activity of mortalin at increasing NR peptide concentrations; maximum reached at 100 μmol/L NR peptide was determined as 25%. In addition, in experiment [2], the EC50 of the stimulation of the basal ATPase activity of Hsp70-1A by NR peptide titration (1 mmol/L ATP, 37°C) was 170 µM and the relative stimulation of the basal ATPase activity of Hsp70-1A at increasing NR peptide concentrations; maximum reached at 500 μmol/L NR peptide was 15%.
